Experimental findings from PMC8867573 are described below.

What all share (experiment): purified protein
Substrate in series [1]: CCn1c(=NN=c2sc3cc(S(=O)(=O)O)ccc3n2CC)sc2cc(S(=O)(=O)O)ccc21
Particulars: pH 5.0, 42 °C, 0.1-25 mM substrate.

Substrate in series [2]: COc1cccc(OC)c1O
Format: biochemical, Streptomyces coelicolor. The note with it: pH 8.0, 42 °C, 0.25-15 mM substrate.

Substrate in series [3]: COc1cc(-c2cc(OC)c(O)c(OC)c2)cc(OC)c1O
The format is biochemical, Streptomyces coelicolor. The note with it: pH 8.5, 42 °C, 0.025-2 mM substrate.

B1: ScSLAC (small laccase, SLAC) (Streptomyces coelicolor A3(2); M298L) (protein)
chain: AKGITARTAPAGGEVRHLKMYAEKLADGQMGYGFEKGKASVPGPLIEVNEGDTLHIEFTNTMDVRASLHVHGLDYEISSDGTAMNKSDVEPGGTRTYTWRTHKPGRRDDGTWRPGSAGYWHYHDHVVGTEHGTGGIRNGLYGPVIVRRKGDVLPDATHTIVFNDMTINNRKPHTGPDFEATVGDRVEIVMITHGEYYHTFHMHGHRWADNRTGILTGPDDPSRVIDNKITGPADSFGFQIIAGEGVGAGAWMYHCHVQSHSDMGLVGLFLVKKPDGTIPGYEPHEHGGATAKSGESGEPTGGAAAHEHEH
The term Km denotes the concentration of substrate that gives half-maximal velocity. For orientation: kcat means the maximal rate divided by the concentration of active sites. B1: in “purified protein [1]”, the Michaelis constant (Km) is 5000 ± 220 µM and the kcat was 9.3 s⁻¹. Moreover, in the series “purified protein [2]”, the Km stood at 1300 ± 90 µM, the kcat was determined as 1.5 s⁻¹ and the kcat/Km result was “kcat/Km = 1.2 × 10^3 s^–1 M^–1”.

B2: ScSLAC (small laccase, SLAC) (Streptomyces coelicolor A3(2)) (protein)
chain: AKGITARTAPAGGEVRHLKMYAEKLADGQMGYGFEKGKASVPGPLIEVNEGDTLHIEFTNTMDVRASLHVHGLDYEISSDGTAMNKSDVEPGGTRTYTWRTHKPGRRDDGTWRPGSAGYWHYHDHVVGTEHGTGGIRNGLYGPVIVRRKGDVLPDATHTIVFNDMTINNRKPHTGPDFEATVGDRVEIVMITHGEYYHTFHMHGHRWADNRTGILTGPDDPSRVIDNKITGPADSFGFQIIAGEGVGAGAWMYHCHVQSHSDMGMVGLFLVKKPDGTIPGYEPHEHGGATAKSGESGEPTGGAAAHEHEH
Regarding B2, in “purified protein [1]”, the Km was 7300 ± 260 µM and the kcat was 38.6 s⁻¹. Also, in the series “purified protein [3]”, the Km was determined as 300 ± 50 µM, the kcat result is on record as “kcat = 11.3 s^–1” and the kcat/Km result is recorded as “kcat/Km = 3.8 × 10^4 s^–1 M^–1”.

B3: ScSLAC (small laccase, SLAC) (Streptomyces coelicolor A3(2); M198F/M298F) (protein)
chain: AKGITARTAPAGGEVRHLKMYAEKLADGQMGYGFEKGKASVPGPLIEVNEGDTLHIEFTNTMDVRASLHVHGLDYEISSDGTAMNKSDVEPGGTRTYTWRTHKPGRRDDGTWRPGSAGYWHYHDHVVGTEHGTGGIRNGLYGPVIVRRKGDVLPDATHTIVFNDFTINNRKPHTGPDFEATVGDRVEIVMITHGEYYHTFHMHGHRWADNRTGILTGPDDPSRVIDNKITGPADSFGFQIIAGEGVGAGAWMYHCHVQSHSDMGFVGLFLVKKPDGTIPGYEPHEHGGATAKSGESGEPTGGAAAHEHEH
Regarding B3, in the series “purified protein [1]”, the Km was found to be 1100 ± 40 µM and the kcat was determined as 3.9 s⁻¹. Further, in “purified protein [2]”, the Km is 1100 ± 80 µM, the kcat was 0.8 s⁻¹ and the kcat/Km result is reported as “kcat/Km = 0.7 × 10^3 s^–1 M^–1”. In addition, in “purified protein [3]”, the Km is 100 ± 20 µM, the kcat stood at 5.6 s⁻¹ and the kcat/Km entry is on record as “kcat/Km = 5.6 × 10^4 s^–1 M^–1”.

B4: ScSLAC (small laccase, SLAC) (Streptomyces coelicolor A3(2); M298F) (protein)
chain: AKGITARTAPAGGEVRHLKMYAEKLADGQMGYGFEKGKASVPGPLIEVNEGDTLHIEFTNTMDVRASLHVHGLDYEISSDGTAMNKSDVEPGGTRTYTWRTHKPGRRDDGTWRPGSAGYWHYHDHVVGTEHGTGGIRNGLYGPVIVRRKGDVLPDATHTIVFNDMTINNRKPHTGPDFEATVGDRVEIVMITHGEYYHTFHMHGHRWADNRTGILTGPDDPSRVIDNKITGPADSFGFQIIAGEGVGAGAWMYHCHVQSHSDMGFVGLFLVKKPDGTIPGYEPHEHGGATAKSGESGEPTGGAAAHEHEH
B4: in “purified protein [1]”, the Km was found to be 4100 ± 240 µM and the kcat is 3.7 s⁻¹. In addition, in “purified protein [2]”, the Km was 1200 ± 190 µM, the kcat was 0.7 s⁻¹ and the kcat/Km entry is on record as “kcat/Km = 0.6 × 10^3 s^–1 M^–1”. Moreover, in “purified protein [3]”, the Km came out at 300 ± 50 µM, the kcat turned out to be 5.4 s⁻¹ and the kcat/Km result was “kcat/Km = 1.8 × 10^4 s^–1 M^–1”.
